{
  "source": "patent US20170119925",
  "tested_on": "T1, Gln-Pro-Gln-Gly-Leu-Ala-Lys (QPQGLAK) peptide crosslinker",
  "T1 sequence": "QPQGLAK",
  "data": [
    {"substance": "general collagenase from Clostridium histolyticum", "values": [
      {"measurement": "kcat/Km (s^-1M^-1), digestion kinetics by HPLC", "value": 32, "unit": "s^-1M^-1"}
    ]}
  ]
}
